For test [1], the target named is sLgBiT-Dr-GPR25 (zebrafish (Danio rerio)). As to the kind of experiment: split reporter (BiFC, NanoBiT); NanoBiT-based competition binding: constant 6 × His-SmBiT-Dr-CXCL17-like tracer and varied competitors on living HEK293T cells expressing sLgBiT-Dr-GPR25; serum-free DMEM, 0.1% BSA, 0.01% Tween-20, room temperature ~1 h.
Test [2] deals with T1, sLgBiT-Dr-GPR25 (zebrafish (Danio rerio), UniProt A0AC58GT18 1-377).
T1 construct: G protein-coupled receptor 25 (GPR25), zebrafish (Danio rerio); In one experiment it was coexpressed with human TPST1 and TPST2; sulfation of the N-terminal tyrosines is only called potential; The chemotaxis assays used untagged Dr-GPR25 (PB-TRE/Dr-GPR25); also called N-terminally secretory LgBiT-fused Dr-GPR25; zebrafish GPR25; source: HEK293T, transfected (PB-TRE/sLgBiT-Dr-GPR25), Dox-induced, …
T1 sequence (looked up): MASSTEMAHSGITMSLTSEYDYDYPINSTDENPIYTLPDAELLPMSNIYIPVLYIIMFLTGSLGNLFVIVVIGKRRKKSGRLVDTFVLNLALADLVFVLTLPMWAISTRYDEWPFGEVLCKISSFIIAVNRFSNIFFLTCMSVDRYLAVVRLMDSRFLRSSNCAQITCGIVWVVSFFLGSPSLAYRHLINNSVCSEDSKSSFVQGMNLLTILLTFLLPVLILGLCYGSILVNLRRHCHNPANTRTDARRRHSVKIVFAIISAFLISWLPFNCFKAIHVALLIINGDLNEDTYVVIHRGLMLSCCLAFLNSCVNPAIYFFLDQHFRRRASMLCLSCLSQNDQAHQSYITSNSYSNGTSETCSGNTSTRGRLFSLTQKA
The description is as above. To be noted: one partner purified.

Test [3] has as its target T1, sLgBiT-Dr-GPR25. As to the kind of experiment: split reporter (BiFC, NanoBiT); NanoBiT-based homogeneous saturation binding as before, but sLgBiT-Dr-GPR25 coexpressed with human TPST1 and TPST2 in HEK293T cells; serum-free DMEM, 0.1% BSA, 0.01% Tween-20, room temperature ~1 h. As to conditions: one partner purified.
For test [4], the target named is T1, sLgBiT-Dr-GPR25. Description: split reporter (BiFC, NanoBiT); NanoBiT-based homogeneous saturation binding: varied 6 × His-SmBiT-Dr-CXCL17-like on living HEK293T cells overexpressing sLgBiT-Dr-GPR25, without coexpression of TPST1 and TPST2; serum-free DMEM, 0.1% BSA, 0.01% Tween-20, room temperature ~1 h; non-specific binding with 1.0 μM unlabeled 6 × His-Dr-CXCL17-like. As to conditions: one partner purified.

Consider 6 × His-Dr-CXCL17 (ligand), for which the IC50 in test [1] worked out at 380 nM. In other words, the sub-micromolar range.

B1: 6 × His-Hs-CXCL17 (ligand, human, UniProt Q6UXB2 22-119, looked up)
chain: SSLNPGVARGHRDRGQASRRWLQEGGQECECKDWFLRAPRRKFMTVSGLPKKQCPCDHFKGNVKKTRHQRHHRKPNKHSRACQQFLKQCQLRSFALPL
notes: C-X-C motif chemokine ligand 17 (CXCL17), human; likely the mature peptide with an N-terminal 6 × His tag, as for the zebrafish proteins (surmised); also called Recombinant human CXCL17; source: recombinant
For B1, in test [2], the IC50 was around 230 nM.

B2: 6 × His-SmBiT-Dr-CXCL17-like (ligand, zebrafish (Danio rerio), UniProt A0AB13AB19 26-95, looked up)
chain: QRRSMKQSAVCGCKLYPDKGLKCTKRPNPKSRDEYYEILKCICRDTQIFSKSSRKEYLKRCNKFYPSLPL
notes: Dr-CXCL17-like, zebrafish (Danio rerio, Tübingen strain), mature peptide of 70 amino acids (residues 26-95 of the 95-residue precursor; predicted signal peptide of 25 residues left out); also called tracer; SmBiT-tagged tracer; not shown: His6, N-terminal, kept; SmBiT, N-terminal, kept
On to B2, for which the Kd in test [3] is 7.1 ± 0.9 nM; in test [4], 7.5 nM.

B3: 6 × His-Dr-CXCL17-like (ligand, zebrafish (Danio rerio), UniProt A0AB13AB19 26-95, looked up)
chain: B2 chain
notes: Dr-CXCL17-like, zebrafish (Danio rerio, Tübingen strain), mature peptide of 70 amino acids (residues 26-95 of the 95-residue precursor; predicted signal peptide of 25 residues left out); also called zebrafish CXCL17-like; A0AB13AB19; not shown: His6, N-terminal, kept
B3 returned an IC50 in test [2] of around 13 nM.

Source of the values: PMC12905490, “Identification and functional characterization of two CXCL17 paralogs from zebrafish” (Biochemical Journal, 2026).
